Test results published in article PMC3485041, “In Vitro Site Selection of a Consensus Binding Site for the Drosophila melanogaster Tbx20 Homolog Midline”.

T1: Midline T-box domain (MidTbx) (Drosophila melanogaster, UniProt Q8SYY8 171-393)
T1 sequence: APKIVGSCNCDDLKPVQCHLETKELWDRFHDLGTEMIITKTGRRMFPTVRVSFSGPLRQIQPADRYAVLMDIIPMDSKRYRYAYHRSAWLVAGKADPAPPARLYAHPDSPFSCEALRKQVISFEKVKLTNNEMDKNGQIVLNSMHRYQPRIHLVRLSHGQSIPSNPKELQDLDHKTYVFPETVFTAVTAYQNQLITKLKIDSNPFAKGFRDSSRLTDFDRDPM

B1: mid.Najand Region 2 (dsDNA)
DNA 1: CAAGGTGTCAAGGAA
DNA 2: TTCCTTGACACCTTG
B2: clone 2 (dsDNA)
DNA 1: GCTGCAGTTGCACTGAATTCGCCTCACCATCACACCAGCGAAGTGACAGTTCGACAGGATCCGCTGAACTGACCTG
DNA 2: CAGGTCAGTTCAGCGGATCCTGTCGAACTGTCACTTCGCTGGTGTGATGGTGAGGCGAATTCAGTGCAACTGCAGC
B3: clone 42 (dsDNA)
DNA 1: CAGGTCAGTTCAGCGGATCCTGTCGGGTGTTGATGGTGTTAACGCGCGAGGGAGGCGAATTCAGTGCAACTGCAGC
DNA 2: GCTGCAGTTGCACTGAATTCGCCTCCCTCGCGCGTTAACACCATCAACACCCGACAGGATCCGCTGAACTGACCTG
B4: clone 50 (dsDNA)
DNA 1: CAGGTCAGTTCAGCGGATCCTGTCGAGGTGTGGCACTGTGAAGTTCGCGAGGAGGCGAATTCAGTGCAACTGCAGC
DNA 2: GCTGCAGTTGCACTGAATTCGCCTCCTCGCGAACTTCACAGTGCCACACCTCGACAGGATCCGCTGAACTGACCTG
B5: mid.Najand Region 1 (dsDNA)
DNA 1: CACCCCCCCAAGGCG
DNA 2: CGCCTTGGGGGGGTG
B6: T-site (Brachyury palindrome) (dsDNA)
DNA 1: AATTTCACACCTAGGTGTGAAATT
DNA 2: AATTTCACACCTAGGTGTGAAATT
B7: clone 72 (dsDNA)
DNA 1: GCTGCAGTTGCACTGAATTCGCCTCAGCGCCCAGTTGGTGTTAAGCCAGTCCGACAGGATCCGCTGAACTGACCTG
DNA 2: CAGGTCAGTTCAGCGGATCCTGTCGGACTGGCTTAACACCAACTGGGCGCTGAGGCGAATTCAGTGCAACTGCAGC
B8: mid.Liu (dsDNA)
DNA 1: GGAAGTAGGTCAAG
DNA 2: CTTGACCTACTTCC
B9: clone 43 (dsDNA)
DNA 1: CAGGTCAGTTCAGCGGATCCTGTCGGGGGGCTGGTGCGAAAGTGTGTAGTGGCAGGTCAGTTCAGCGGATCCTGTCG
DNA 2: CGACAGGATCCGCTGAACTGACCTGCCACTACACACTTTCGCACCAGCCCCCCGACAGGATCCGCTGAACTGACCTG
B10: Tbx20.MacIndoe (dsDNA)
DNA 1: GGAGGTGTGAGGCGA
DNA 2: TCGCCTCACACCTCC
B11: clone 74 (dsDNA)
DNA 1: CAGGTCAGTTCAGCGGATCCTGTCGCCTTAAGGTGCGGGCAGACAGGTGTGGAGGCGAATTCAGTGCAACTGCAGC
DNA 2: GCTGCAGTTGCACTGAATTCGCCTCCACACCTGTCTGCCCGCACCTTAAGGCGACAGGATCCGCTGAACTGACCTG
B12: mid.Najand (dsDNA)
DNA 1: CAAGGTGTCAAGGCG
DNA 2: CGCCTTGACACCTTG
B13: clone 4 (dsDNA)
DNA 1: GCTGCAGTTGCACTGAATTCGCCTCCGTGCGTACGTGTCAATTCGTCAAGGCCGACAGGATCCGCTGAACTGACCTG
DNA 2: CAGGTCAGTTCAGCGGATCCTGTCGGCCTTGACGAATTGACACGTACGCACGGAGGCGAATTCAGTGCAACTGCAGC
B14: clone 67 (dsDNA)
DNA 1: CAGGTCAGTTCAGCGGATCCTGTCGCTACGGAGGTGATTACACGCGAAATCGAGGCGAATTCAGTGCAACTGCAGC
DNA 2: GCTGCAGTTGCACTGAATTCGCCTCGATTTCGCGTGTAATCACCTCCGTAGCGACAGGATCCGCTGAACTGACCTG
B15: clone 57 (dsDNA)
DNA 1: CAGGTCAGTTCAGCGGATCCTGTCGACATGGGAGGCTGTTACGGCGCGAACGAGGCGAATTCAGTGCAACTGCAGC
DNA 2: GCTGCAGTTGCACTGAATTCGCCTCGTTCGCGCCGTAACAGCCTCCCATGTCGACAGGATCCGCTGAACTGACCTG
B16: clone 75 (dsDNA)
DNA 1: CAGGTCAGATCAGCGGATCCTGTCGCGACGCCTTGGGGGTGTCACGGCGCGGCAGGTCAGATCAGCGGATCCTGTCG
DNA 2: CGACAGGATCCGCTGATCTGACCTGCCGCGCCGTGACACCCCCAAGGCGTCGCGACAGGATCCGCTGATCTGACCTG

Target: T1, Midline T-box domain (MidTbx)
Test: EMSA; 20 mM HEPES pH 7.9, 100 mM KCl, 0.2 mM EDTA, 0.2 mM EGTA, 20% glycerol, 0.1% NP40, 0.5 mM DTT, 10 mg/ml BSA, 8 ng/ul poly(dI-dC); room temperature 1 h; 15 fmol
Settings: protein: recombinant, tags: C-terminal 6xHis (pET-21a), blunt

Binder	binding result (label: 5' biotin)	binding result (label: 5' biotin (primer F))	further results
B1	binds		
B2		binds	
B3		binds	
B4		binds	
B5	no binding		
B6			binding result (label: 5' biotin, self-complementary, 2 copies): binds
B7		binds	
B8	no binding		
B9		binds	
B10	binds		
B11		binds	
B12	binds		
B13		binds	
B14		binds	
B15		binds	
B16		binds	
